Measured values as given in US20110244498.

System: non-phosphorylated pKID-Abl

Abl tyrosine kinase (New England Biolabs)
conversion of non-phosphorylated pKID-Abl to phosphorylated pKID-Abl (analytical HPLC, 30 min at 37 C, 300 units Abl): 62% conversion of non-phosphorylated pKID-Abl to phosphorylated pKID-Abl in the absence of Gleevec
conversion of non-phosphorylated pKID-Abl to phosphorylated pKID-Abl in the presence of 50 µM Gleevec (analytical HPLC): less than 5% conversion was observed in the presence of Gleevec
terbium luminescence after incubation with kinase: resulted in a significant increase in terbium luminescence
